Where a chain is given by its changes, count along the chain named. Numbers in names are those of the source.
What was measured:
CXCR4 [1] = target: T1, CXCR4 (Homo sapiens, UniProt P61073, L41A); experiment: Calcium mobilization assay in transfected HEK 293T cells; type: cell-based; conditions: peptide-induced, point mutation, FIG. 15A
T1 construct: WT CXCR4 with an N-terminal 3×HA-tag, Gβ3-WT, and GNA15 sub-cloned into pcDNA3.1+ were obtained from the cDNA Resource Center; host or cells: HEK 293T
Experimental: (§1) 40,000 HEK 293T cells were transiently transfected with 50 ng HA3-CXCR4, 10 ng GNA15 in pcDNA3.1+. To equalize receptor surface expression, 75 ng of HA3-CXCR4 for the Cdes2 Design variant. Cells were first seeded in 100 uL DMEM (Gibco, ref: 41965-039) 10% FBS in a black-walled, clear-bottom 96-well plate coated with poly-lysine (Sigma, P6407-5MG). Directly after cell loading, 50 uL of the mixture containing 0.5 μL Lipofectamine 2000 (Invitrogen, ref: 11668-019) and the DNA was added on top of the cells. The cells were then left to incubate at 37° C., 5% CO2, 95% relative humidity for 20 h, after which, media was refreshed with 150 uL DMEM+10% FBS. Cells were assayed 48 h post-transfection. Cells were washed with 200 μL FLIPR6 buffer (HBSS+20 mM HEPES, pH 7.4), then incubated at 37° C., 5% CO2, 95% relative humidity for 2 h in 200 μL dye buffer according to manufacturer's protocol. Just before the assay, 5× concentrated peptide solutions were prepared in FLIPR6 buffer in a V-bottom 96-well plate. After incubation, peptide solutions were added at a rate of 16 μL/s after 30 s and fluorescence changes were monitored for 90 s after addition using microplate reader FlexStation3 (Molecular Devices). The maximum response after correction by the mock-transfected condition was averaged from three replicates. […]

CXCR4 [2] = experiment: Gαi dissociation BRET (Gi activation) in transfected HEK 293T cells; type: cell-based, human; conditions: for enhanced potency in G-coupling (Gi): designed receptor vs WT CXCR4 scaffold, against WT CXCL12 peptide
Experimental: (§2) 40,000 HEK 293T cells were transiently transfected with HA3-CXCR4, Gαi1-91-Rluc8, Gβ3-WT and Gγ9-GFP2 in pcDNA3.1+ at a ratio of 10:1:10:5 respectively. Cells were first seeded in 100 μL DMEM 10% FBS in a poly-lysine coated, white-walled, white-bottom 96-well plate. Directly after cell loading, 50 μL of the mixture containing Lipofectamine 2000 and the DNA was added on top of the cells. The cells were then left to incubate at 37° C., 5% CO2, 95% relative humidity for 20 h, after which, 150 μL media was refreshed. Cells were assayed 48 h post-transfection. Cells were washed with 150 μL PBS, then 40 μL BRET buffer (HBSS, 0.2% Glucose) was added to each well. Coelenterazine 400a was first added at a final concentration of 2.5 μM and BRET ratios were measured once using Mithras^2 LB 943 plate reader. After the first measurement, […] agonist solution was added to each well and BRET ratios were measured for another 30 min using Mithras^2 LB 943 plate reader. Mock-transfected controls were subtracted from the data. Maximum values were then plotted against selected concentrations and fitted to a sigmoidal curve. (n=3, SD plotted)

CXCR4 [3] = experiment: Calcium mobilization assay in transfected HEK 293T cells; type: cell-based, human; conditions: designed receptor vs WT CXCR4, CXCL12-derived peptide, HEK cells
Experimental: as §1

CXCR4 [4] = target: T2, CXCR4 (Homo sapiens, UniProt P61073, N37A/S285M/Y45F); experiment: Gαi dissociation BRET (Gi activation) in transfected HEK 293T cells; type: cell-based; conditions: HEK cells; cell based assays reporting Gi activation and Ca2+ mobilization
T2 construct: WT CXCR4 with an N-terminal 3×HA-tag, Gβ3-WT, and GNA15 sub-cloned into pcDNA3.1+ were obtained from the cDNA Resource Center; host or cells: HEK 293T
Experimental: as §2

T2 sequence (P61073 whole entry N37A/Y45F/S285M): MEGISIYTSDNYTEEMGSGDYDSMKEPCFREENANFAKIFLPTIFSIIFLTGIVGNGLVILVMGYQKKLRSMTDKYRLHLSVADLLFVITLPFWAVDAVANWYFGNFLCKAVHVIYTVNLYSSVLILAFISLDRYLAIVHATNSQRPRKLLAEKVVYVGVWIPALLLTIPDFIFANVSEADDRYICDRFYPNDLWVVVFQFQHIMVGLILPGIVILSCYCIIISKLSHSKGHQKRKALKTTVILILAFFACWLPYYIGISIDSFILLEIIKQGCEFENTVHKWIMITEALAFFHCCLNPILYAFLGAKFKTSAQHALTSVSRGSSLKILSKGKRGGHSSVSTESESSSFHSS

B1: L41A CXCR4: CXCR4 point mutant L41A (protein)
chain: MEGISIYTSDNYTEEMGSGDYDSMKEPCFREENANFNKIFAPTIYSIIFLTGIVGNGLVILVMGYQKKLRSMTDKYRLHLSVADLLFVITLPFWAVDAVANWYFGNFLCKAVHVIYTVNLYSSVLILAFISLDRYLAIVHATNSQRPRKLLAEKVVYVGVWIPALLLTIPDFIFANVSEADDRYICDRFYPNDLWVVVFQFQHIMVGLILPGIVILSCYCIIISKLSHSKGHQKRKALKTTVILILAFFACWLPYYIGISIDSFILLEIIKQGCEFENTVHKWISITEALAFFHCCLNPILYAFLGAKFKTSAQHALTSVSRGSSLKILSKGKRGGHSSVSTESESSSFHSS
CXCR4 [1]
  calcium release: Enhanced

B2: Cdes2: second-generation combinatorial design CXCR4 variant combining the 2 designed binding hotspot motifs (protein)
chain: B1 chain with N37A, A41L, Y45F, S178F, D181Q, I185V, S285M
modifications: Cdes2
CXCR4 [2]
  enhanced potency in G-coupling (Gi): 3.2 fold over WT
CXCR4 [3]
  enhanced potency in calcium mobilization: 3.1 fold over WT

B3: Cdes1: first-generation combinatorial design CXCR4 receptor variant with binding hotspot motif at TM1/7 interface (protein)
chain: B1 chain with N37A, A41L, Y45F, S285M
modifications: Cdes1
CXCR4 [4]
  sensitivity to CXCL12: enhanced sensitivity

B4: Ldes: CXCR4 variant assembled from activating point mutations on TM1, TM3 and ECL2 of the point mutant library (protein)
chain: B1 chain with A41I, H113N, S178A
modifications: Ldes
CXCR4 [2]
  enhanced potency in G-coupling (Gi): ~11 fold over WT
CXCR4 [2]; designed receptor vs starting CXCR4 WT scaffold, WT CXCL12 peptide
  higher Gi efficacy: 120%

B5: CLdes: CXCR4 variant combining the H113N mutation with the Cdes2 design (protein)
chain: B1 chain with N37A, A41L, Y45F, H113N, S178F, D181Q, I185V, S285M
modifications: CLdes
notes: CXCR4 variant combining the H113N mutation with the Cdes2 design
CXCR4 [2]
  enhanced potency in G-coupling (Gi): more than 9 fold over WT
